Tested on: Lsr2 (Mycobacterium tuberculosis)
Test: magnetic tweezers

Question: lambda DNA 48,502 bp was tested. Which Kd did it give?
Answer: Its Kd is 0.0575 µM.

Reference: article PMC3664827
